Article PMC11189300, “Structure of the human KMN complex and implications for regulation of its assembly” (Nature Structural & Molecular Biology, 2024)
Changes are numbered by the printed parent chain.

T1: DSN1 (subunit of Mis12C in the KMN structure) (human, UniProt Q9H410 1-356)
T1 construct: DSN1, human; also called DSN1^SORT-HIS; source: Tnao38 insect cells (baculovirus), co-expressed in Mis12C, purified (Talon, SEC)
T1 sequence (looked up): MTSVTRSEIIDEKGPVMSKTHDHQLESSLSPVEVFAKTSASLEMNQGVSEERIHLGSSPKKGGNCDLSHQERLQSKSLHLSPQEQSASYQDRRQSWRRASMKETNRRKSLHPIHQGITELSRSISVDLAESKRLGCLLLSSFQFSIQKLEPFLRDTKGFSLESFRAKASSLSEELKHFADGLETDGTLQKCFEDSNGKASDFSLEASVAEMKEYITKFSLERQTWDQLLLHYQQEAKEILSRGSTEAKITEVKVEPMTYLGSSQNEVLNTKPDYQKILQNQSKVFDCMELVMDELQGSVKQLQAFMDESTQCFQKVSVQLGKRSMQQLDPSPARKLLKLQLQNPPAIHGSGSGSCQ

T2: SPC25_(92–224) (human, UniProt Q9HBM1 92-224)
T2 construct: SPC25, human, residues 92–224 (RWD domain); source: E. coli BL21(DE3)-codon-plus-RIPL, co-purified with SPC24 (glutathione-agarose, 3C protease, SEC)
T2 sequence (looked up): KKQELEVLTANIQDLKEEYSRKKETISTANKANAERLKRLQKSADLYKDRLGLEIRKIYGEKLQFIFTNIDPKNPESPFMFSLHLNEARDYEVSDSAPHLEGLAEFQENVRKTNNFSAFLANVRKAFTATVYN

T3: Mis12 complex (Mis12C), full length: MIS12, PMF1, NSL1, DSN1 (human, UniProt Q9H081 1-205; Q6P1K2 1-205; Q96IY1 1-281; Q9H410 1-356)
T3 construct: MIS12, human, subunit of the Mis12 complex; PMF1, human, subunit of the Mis12 complex; NSL1, human, subunit of the Mis12 complex; DSN1, human, subunit of the Mis12 complex (DSN1^SORT-HIS); In BLI one partner was biotinylated by sortase (GGGG-biotin peptide); also called Mis12C^WT; wild-type Mis12C; source: Tnao38 insect cells (baculovirus from pBIG1A), purified (Talon, SEC); copies: + + +
T3 sequence (looked up) 1: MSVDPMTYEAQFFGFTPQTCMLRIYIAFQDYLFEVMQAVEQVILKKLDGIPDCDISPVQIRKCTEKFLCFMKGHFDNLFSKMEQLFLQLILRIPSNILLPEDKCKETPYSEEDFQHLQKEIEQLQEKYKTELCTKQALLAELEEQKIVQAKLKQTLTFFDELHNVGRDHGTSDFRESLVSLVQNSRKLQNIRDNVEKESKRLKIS
T3 sequence (looked up) 2: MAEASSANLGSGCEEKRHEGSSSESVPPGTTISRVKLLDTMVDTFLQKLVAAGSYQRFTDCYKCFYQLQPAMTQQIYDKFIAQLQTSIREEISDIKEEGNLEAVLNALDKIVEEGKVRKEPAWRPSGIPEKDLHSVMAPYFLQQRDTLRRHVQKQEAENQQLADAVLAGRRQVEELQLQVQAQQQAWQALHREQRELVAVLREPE
T3 sequence (looked up) 3: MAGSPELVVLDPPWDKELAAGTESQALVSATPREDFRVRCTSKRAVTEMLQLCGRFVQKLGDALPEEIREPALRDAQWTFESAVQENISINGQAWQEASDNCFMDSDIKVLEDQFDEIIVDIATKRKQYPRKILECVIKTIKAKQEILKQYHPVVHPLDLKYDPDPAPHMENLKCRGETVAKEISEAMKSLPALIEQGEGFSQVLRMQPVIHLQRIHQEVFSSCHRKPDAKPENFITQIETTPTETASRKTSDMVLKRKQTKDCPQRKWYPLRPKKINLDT
T3 sequence (looked up) 4: T1 sequence (looked up)

T4: KNL1 residues 2,021–2,342 (human, UniProt Q8NG31 2021-2342)
T4 construct: KNL1 (CASC5), human, C-terminal region, residues 2,021–2,342; numbering of isoform 1 of the CASC5 gene; also called KNL1_(2,021–2,342); Knl1_(2,021–2,342); source: E. coli BL21(DE3)-Codon-plus-RIPL, purified (glutathione-agarose, TEV cleavage, SEC)
T4 sequence (looked up): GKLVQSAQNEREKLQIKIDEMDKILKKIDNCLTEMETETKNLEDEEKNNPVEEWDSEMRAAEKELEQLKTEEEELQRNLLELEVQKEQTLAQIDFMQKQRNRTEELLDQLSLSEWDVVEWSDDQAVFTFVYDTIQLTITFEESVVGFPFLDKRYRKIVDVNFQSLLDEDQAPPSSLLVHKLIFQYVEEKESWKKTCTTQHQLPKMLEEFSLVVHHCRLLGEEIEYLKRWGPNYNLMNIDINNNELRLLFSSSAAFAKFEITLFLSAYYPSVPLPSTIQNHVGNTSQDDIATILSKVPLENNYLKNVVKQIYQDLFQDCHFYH

T5: Mis12C^M5 (NSL1 I216A) (human, UniProt Q9H081 1-205; Q6P1K2 1-205; Q96IY1 1-281; Q9H410 1-356, I216A)
T5 construct: MIS12, human; PMF1, human; NSL1, human, with I216A on the α5 helix; DSN1, human; source: Tnao38 insect cells (baculovirus), purified (Talon, SEC); copies: + + +
T5 sequence (looked up) 1: T3 sequence (looked up) 1
T5 sequence (looked up) 2: T3 sequence (looked up) 2
T5 sequence (looked up) 3: T3 sequence (looked up) 3 with I216A
T5 sequence (looked up) 4: T1 sequence (looked up)

B1: SPC24_(109–197) (domain or fragment, human, UniProt Q8NBT2 109-197, looked up)
chain: EELKEIEADLERQEKEVDEDTTVTIPSAVYVAQLYHQVSKIEWDYECEPGMVKGIHHGPSVAQPIHLDSTQLSRKFISDYLWSLVDTEW
notes: source: E. coli BL21(DE3)-codon-plus-RIPL, co-purified with SPC25 (glutathione-agarose, 3C protease, SEC)
B2: SPC24_(109–197)/SPC25_(92–224) dimer (complex, human)
chain 1: B1 chain
chain 2: T2 sequence (looked up)
notes: SPC25, human, residues 92–224 (RWD domain); GST was cleaved off with 3C protease; also called SPC24/SPC25 dimer; source: E. coli BL21(DE3)-codon-plus-RIPL, purified (glutathione-agarose, 3C protease, SEC)
B3: PMF1 (subunit of Mis12C in the KMN structure) (natural protein, human, UniProt Q6P1K2 1-205, looked up)
chain: T3 sequence (looked up) 2
notes: PMF1, human; source: Tnao38 insect cells (baculovirus), co-expressed in Mis12C, purified (Talon, SEC)
B4: NSL1 (subunit of Mis12C in the KMN structure) (natural protein, human, UniProt Q96IY1 1-281, looked up)
chain: T3 sequence (looked up) 3
notes: NSL1, human; source: Tnao38 insect cells (baculovirus), co-expressed in Mis12C, purified (Talon, SEC)
B5: ZWINT (natural protein, human, UniProt O95229 1-277, looked up)
chain: MEAAETEAEAAALEVLAEVAGILEPVGLQEEAELPAKILVEFVVDSQKKDKLLCSQLQVADFLQNILAQEDTAKGLDPLASEDTSRQKAIAAKEQWKELKATYREHVEAIKIGLTKALTQMEEAQRKRTQLREAFEQLQAKKQMAMEKRRAVQNQWQLQQEKHLQHLAEVSAEVRERKTGTQQELDRVFQKLGNLKQQAEQERDKLQRYQTFLQLLYTLQGKLLFPEAEAEAENLPDDKPQQPTRPQEQSTGDTMGRDPGVSFKAVGLQPAGDVNLP
notes: ZWINT, human; Probably made like the mutants (GST fusion, 3C cleaved); ZWINT was in the cryo-EM sample but is not visible in the map; also called ZWINT^WT
B6: KNL1 residues 2,026–2,342 (domain or fragment, human, UniProt Q8NG31 2026-2342, looked up)
chain: SAQNEREKLQIKIDEMDKILKKIDNCLTEMETETKNLEDEEKNNPVEEWDSEMRAAEKELEQLKTEEEELQRNLLELEVQKEQTLAQIDFMQKQRNRTEELLDQLSLSEWDVVEWSDDQAVFTFVYDTIQLTITFEESVVGFPFLDKRYRKIVDVNFQSLLDEDQAPPSSLLVHKLIFQYVEEKESWKKTCTTQHQLPKMLEEFSLVVHHCRLLGEEIEYLKRWGPNYNLMNIDINNNELRLLFSSSAAFAKFEITLFLSAYYPSVPLPSTIQNHVGNTSQDDIATILSKVPLENNYLKNVVKQIYQDLFQDCHFYH
notes: numbering of isoform 1 of the CASC5 gene; also called KNL1^WT; source: E. coli BL21(DE3)-Codon-plus-RIPL, purified (glutathione-agarose, TEV cleavage, SEC)
B7: full-length SPC24/SPC25 (complex, human)
chain 1: MAAFRDIEEVSQGLLSLLGANRAEAQQRRLLGRHEQVVERLLETQDGAEKQLREILTMEKEVAQSLLNAKEQVHQGGVELQQLEAGLQEAGEEDTRLKASLLQLTRELEELKEIEADLERQEKEVDEDTTVTIPSAVYVAQLYHQVSKIEWDYECEPGMVKGIHHGPSVAQPIHLDSTQLSRKFISDYLWSLVDTEW
chain 2: MVEDELALFDKSINEFWNKFKSTDTSCQMAGLRDTYKDSIKAFAEKLSVKLKEEERMVEMFLEYQNQISRQNKLIQEKKDNLLKLIAEVKGKKQELEVLTANIQDLKEEYSRKKETISTANKANAERLKRLQKSADLYKDRLGLEIRKIYGEKLQFIFTNIDPKNPESPFMFSLHLNEARDYEVSDSAPHLEGLAEFQENVRKTNNFSAFLANVRKAFTATVYN
notes: SPC24, human; SPC25, human; GST was cleaved off with 3C protease; also called SPC24/SPC25 heterodimer; SPC24/SPC25 pair; source: E. coli BL21(DE3)-codon-plus-RIPL, purified (glutathione-agarose, 3C protease, SEC)

What was measured:
Details in all cases: both partners purified
[1] = biological target: T1, DSN1 (subunit of Mis12C in the KMN …); assay: cryo-EM structure; eight-subunit KMN (full-length Mis12C, SPC24 109–197/SPC25 92–224, ZWINT, KNL1 2,021–2,342), 0.3 mg/ml with 0.003% Triton; reconstruction at 4.5 Å; model fitted from known structures and AF2 predictions and refined against the map
SPC25_(92–224) = biological target: T2, SPC25_(92–224); assay: as above
[2] = biological target: B4; assay: as above
[3] = biological target: T3, Mis12 complex (Mis12C), full length: …; assay: as above
[4] = biological target: T4, KNL1 residues 2,021–2,342; assay: as above
[5] = biological target: T4, KNL1 residues 2,021–2,342; assay: SEC; KNL1 2,021–2,342, ZWINT, Mis12C and SPC24 109–197/SPC25 92–224 mixed equimolar on ice for at least 1 h; 50 mM HEPES pH 8.0, 150 mM NaCl, 2 mM TCEP; S200 5/150 column
[6] = biological target: T3, Mis12 complex (Mis12C), full length: …; assay: ITC; PEAQ-ITC; 50 mM HEPES pH 8.0, 150 mM NaCl, 1 mM TCEP; 19 injections; one-site binding fit
[7] = biological target: T3, Mis12 complex (Mis12C), full length: …; assay: BLI; Octet SA biosensors loaded with the biotinylated ligand, analyte at different concentrations; 25 °C; 50 mM HEPES pH 8.0, 150 mM NaCl, 2 mM TCEP, 0.05% Tween-20; which partner was loaded is not given
Mis12C^M5 (NSL1 I216A) = biological target: T5, Mis12C^M5 (NSL1 I216A); assay: ITC; PEAQ-ITC; 50 mM HEPES pH 8.0, 150 mM NaCl, 1 mM TCEP; 19 injections; one-site binding fit

Q: What does the source list for B1?
A: binding result [1]: binds; binding result (SPC25_(92–224)): binds; binding result [2]: binds

Q: Which results are given for B2?
A: binding result [1]: binds; binding result [2]: binds; binding result [3]: binds

Q: Does B3 bind [4]?
A: binds

Q: Does B4 bind [4]?
A: binds

Q: Does B5 bind [5]?
A: binds

Q: With B6 as the binder, how does the Kd [6] read?
A: ~1.6 nM

Q: And the Kd [7]?
A: ~2 nM

Q: B7 was tested. Which “fold reduction of binding affinity against the wild-type pair” value (Mis12C^M5 (NSL1 I216A)) did it give?
A: ~15 fold

Q: What about the Kd [6] of the same binder?
A: ~46 nM
